Values quoted from earlier work, collected in paper PMC2812830.

Target: LAT pY191 phosphopeptide pY191 peptide (Homo sapiens) (UniProt O43561)
Assay: ITC

Kd: 286 nM
Substance: Grb2 (from UniProt P62993)
